# From patent publication US20190016812A1
# Molecular target: human TNFSF9 (R&D Systems; #2295-4L-025/CF) (human) (UniProt P41273)
# Assay: MSD ELISA: TNFSF9 + 1 ug/mL antibody, binding to coated TNFRSF9
# human TNFSF9 (R&D Systems; #2295-4L-025/CF) (human), sequence (P41273 71-254 limits assumed): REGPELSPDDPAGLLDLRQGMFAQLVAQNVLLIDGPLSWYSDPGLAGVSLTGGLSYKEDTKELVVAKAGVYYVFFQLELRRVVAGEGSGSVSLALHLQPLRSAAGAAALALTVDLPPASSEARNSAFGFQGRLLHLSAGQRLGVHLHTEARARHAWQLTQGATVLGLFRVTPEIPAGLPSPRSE
row,Binder,% inhibition of ligand receptor interaction
1,"SC113.190 (antibody, V domains shown) VH: QVQLQQPGAELVKPGASVKLSCKASGYTFTTYYMYWVKQRPGQGLEWIGGINPSNGDTDFNEKFKSKATLTVDKSSSTVYMQLSSLTPEDSAVYFCTSAGYTSWFAYWGQGTLVTVSA VL: QIVLTQSPALMSASPGEKVTMTCSASSSVSYMNWYQQKPRSSPKPWIYLTSHLASGVPARFSGSGSGTSYSLTISSMEAEDAATYYCQQWSSKPPTFGSGTKLEIK",8%
2,"SC113.119 (antibody, V domains shown) VH: QVQLQQSGTELARPGASVRLSCKASGYTFTSYGLSWVKQRTGQGLEWIGEIFPGSGNSNYNENFKGKATLTADKSSSTAYMQVSSLSSEDSVVYFCARGGFDFWGQGTSLTVSS VL: DIQMTQSPSSLSASLGERVSLTCRASQEITGYLSWLQQKPDGTIKRLIYAASTLDSGVPKRFSGSRSGSDYSLTISSLESEDFADYYCLQYARYPPTFGGGTKLEIK",-8%
3,"SC113.118 (antibody, V domains shown) VH: QVQLQQSGTELARPGASVKLSCKASGYTFTSYGLSWVKQRTGQGLEWIGEIFPGSGNSNYNENFKGKATLTADKSSSTAYMQLSSLTSDDSVVYFCARGGFDYWGQGTTLTVSS VL: DIQMTQSPSSLSASLGERVSLTCRASQEISGFLSWLQQKPDGTIKRLIYAASTLDSGVPKRFSGSRSGSDYSLTISSLESEDFADYYCLQYARYPPTFGGGTKLEIK",3%
4,"SC113.172 (antibody, V domains shown) VH: QGHLQQSGAELMKPGASVKISCKATGYTFSSYWIEWVKQRPGHGLEWIGEILPGSGSTHYNEKFKGKATFTADTSSNTAYMQLISLTSEDSAVYYCARRDAMDYWGQGTSVTVSS VL: DIVMTQSPSSLTVTPGEKVTMSCKSSQSLLTSGNQKNYLTWYQQQPGQPPKLLIYWASTRESGVPDRFTGSGSGTDFTLTISSVQAEDLAVYYCQNDYSYPYTFGGGTKLEIK",-3%
5,"SC113.187 (antibody, V domains shown) VH: QVQLQQSGAELAKPGASVKMSCKASGYTFTSYWMYWVKQRPGQGLEWIGYINPSTGYTEYNQKFKDKATLTADKSSSTAYMQLNSLTSEDSAVYYCARSGYYGSSSLAYWGQGTLVTVSA VL: NIVLTQSPASLAVSLGQRATISCRASESVDSYGNSFMHWYQQKPGQPPKLLIYLASNLESGVPARFSGSGSRTDFTLTIDPVEADDAATYYCQQNNEDPWTFGGGTKLEIK",-2%
